Measured values taken from publication PMC2686167, “Structure of Human DNA Polymerase κ Inserting dATP Opposite an 8-OxoG DNA Lesion”.

Target: T1, DNA polymerase kappa catalytic core (Polκ19-526) (Homo sapiens, UniProt Q9UBT6 19-526)
T1 sequence: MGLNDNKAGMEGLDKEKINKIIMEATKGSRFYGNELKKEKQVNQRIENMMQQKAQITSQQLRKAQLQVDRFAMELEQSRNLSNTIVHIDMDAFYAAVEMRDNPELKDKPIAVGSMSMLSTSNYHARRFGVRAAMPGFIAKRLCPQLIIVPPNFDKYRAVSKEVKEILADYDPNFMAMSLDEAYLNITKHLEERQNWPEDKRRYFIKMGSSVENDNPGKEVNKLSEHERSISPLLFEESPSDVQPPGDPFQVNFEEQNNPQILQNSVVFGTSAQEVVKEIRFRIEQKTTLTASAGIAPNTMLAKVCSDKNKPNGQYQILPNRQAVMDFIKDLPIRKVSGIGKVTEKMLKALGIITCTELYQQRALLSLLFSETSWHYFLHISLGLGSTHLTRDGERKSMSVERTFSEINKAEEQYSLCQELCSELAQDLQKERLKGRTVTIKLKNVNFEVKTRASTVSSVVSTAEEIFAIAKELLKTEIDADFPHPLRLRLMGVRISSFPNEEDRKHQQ
Assay: X-ray crystallography (3.2 Å); dATP, Mg2+ (ternary complex); Crystal structure only; cocrystallization conditions not in the material
Conditions: protein: recombinant; tags: N-terminal GST removed with PreScission protease; 5' overhang 5 nt on template; recessed 3' primer end

B1: 13-nt/18-nt primer/template with 8-oxoG (dsDNA)
DNA 1: CCTAGGAGTCCTTCCCCC
DNA 2: GGGGGAAGGACTC
modifications: template G5 = 7,8-dihydro-8-oxoguanine; primer 3' terminal C = dideoxycytidine
- binding result: binds
